Data on 5 molecules can be found in patent publication US20180049457A1, “ENZYMATIC SYNTHESIS OF SOLUBLE GLUCAN FIBER” (E I DU PONT DE NEMOURS AND COMPANY, priority 2014, published 2018).

Changes are numbered by the printed parent chain.

B1: GTF0974T6: T6 C-terminal truncation of GTF0974, SEQ ID NO: 140, strain SG1306 (protein)
chain: INGKQYYVNSDGSVRKNFVFEQDGKSYYFDAETGALATKSQDEFSTEPIKATVDFSSGNQLYKNDDKSLDQLDTFITADAWYRPKSILKDGKTWTASTEADKRPLLMVWWPDKSTQVNYLNYMQNQGLGAGSFSTNSSQESLDQAAKAVQTKIEERIAREGNTNWLRTSIDQFIKTQPGWNSSTENSSYDHLQGGQLLFNNSKGDTGNRTSHANSDYRLLNRTPTNQTGTRKYFKDNSIGGLEFLLANDIDNSNPAVQAEQLNWLHFMMNIGSIMANDPTANFDGLRVDALDNVDADLLQIASDYFKAAYGVDKSEANAIKHLSYLEAWSANDPYYNKDTKGAQLPIDNALRNALTNLLMRDKNTRMQLGDMTAFINSSLNPRGANDKNGERMANYIFTRAHDTEAQTIIQRIIRDRINPNLFGYNFTRDEIKKAFEIYNEDIDKAHKTYASYNLPSVYALMLTNKDSVTRVYYGDLYREDGHYMAKKTPYFDAIDTLLRARIKYVAGGQDMEVKKVGNDGLLTSVRYGKGANNRTDLGTSETRTQGMGVIMTNNYDFRLGSNETVTMNMGRAHRNQLYRPLLLTTKDGIATYLNDSDVPKKLLKRTDWNGNLTFNANDVFGVENVQVSGYLGVWVPYGAKANQDARTQPSNRANSDGQVYKSSAALDSQVMYEAFSNFQAFADDQPELYMNRVLAKNTDLLKAWGITSVGLPPQYVSSKDGTFLDSTIDNGYAFDDRYDMALSQNNKYGSLEDLLNVLRALHKDGIQAIADWVPDQIYNLPGKEVVNATRVNGYGNHQVGYQIIDQAYVANTRTDGTDYQGKYGGAFLDELKAKYPSIFNRVQISNGKQLPTNEKITKWSAKYFNGTNILGRGINYVLRDDKTNQYFNTSANSQLLPTPLRDTGAITSTQVFQRRGQDVYFLRDNQAVKNEFVQDGNGNWYYFGGDGKMTKGAQNINNKDYYFFDNGIQLRNALRRASNGYTYYYGLDGAMVKNAFVDFDDKHKQVRAFTTQG
modifications: T6 C-terminal truncation of GTF0974
B2: GTF0974T2: T2 C-terminal truncation of GTF0974, SEQ ID NO: 138, strain SG1305 (protein)
chain: INGKQYYVNSDGSVRKNFVFEQDGKSYYFDAETGALATKSQDEFSTEPIKATVDFSSGNQLYKNDDKSLDQLDTFITADAWYRPKSILKDGKTWTASTEADKRPLLMVWWPDKSTQVNYLNYMQNQGLGAGSFSTNSSQESLDQAAKAVQTKIEERIAREGNTNWLRTSIDQFIKTQPGWNSSTENSSYDHLQGGQLLFNNSKGDTGNRTSHANSDYRLLNRTPTNQTGTRKYFKDNSIGGLEFLLANDIDNSNPAVQAEQLNWLHFMMNIGSIMANDPTANFDGLRVDALDNVDADLLQIASDYFKAAYGVDKSEANAIKHLSYLEAWSANDPYYNKDTKGAQLPIDNALRNALTNLLMRDKNTRMQLGDMTAFINSSLNPRGANDKNGERMANYIFTRAHDTEAQTIIQRIIRDRINPNLFGYNFTRDEIKKAFEIYNEDIDKAHKTYASYNLPSVYALMLTNKDSVTRVYYGDLYREDGHYMAKKTPYFDAIDTLLRARIKYVAGGQDMEVKKVGNDGLLTSVRYGKGANNRTDLGTSETRTQGMGVIMTNNYDFRLGSNETVTMNMGRAHRNQLYRPLLLTTKDGIATYLNDSDVPKKLLKRTDWNGNLTFNANDVFGVENVQVSGYLGVWVPYGAKANQDARTQPSNRANSDGQVYKSSAALDSQVMYEAFSNFQAFADDQPELYMNRVLAKNTDLLKAWGITSVGLPPQYVSSKDGTFLDSTIDNGYAFDDRYDMALSQNNKYGSLEDLLNVLRALHKDGIQAIADWVPDQIYNLPGKEVVNATRVNGYGNHQVGYQIIDQAYVANTRTDGTDYQGKYGGAFLDELKAKYPSIFNRVQISNGKQLPTNEKITKWSAKYFNGTNILGRGINYVLRDDKTNQYFNTSANSQLLPTPLRDTGAITSTQVFQRRGQDVYFLRDNQAVKNEFVQDGNGNWYYFGGDG
modifications: T2 C-terminal truncation of GTF0974
B3: GTF4336T2: T2 C-terminal truncation of GTF4336, SEQ ID NO: 144, strain SG1308 (protein)
chain: B2 chain with L594F, K602N, Y638V, I707V, N797Y, V800Q, I805V, G946A
modifications: T2 C-terminal truncation of GTF4336
B4: GTF0974T1: T1 C-terminal truncation of GTF0974, SEQ ID NO: 136, strain SG1304 (protein)
chain: INGKQYYVNSDGSVRKNFVFEQDGKSYYFDAETGALATKSQDEFSTEPIKATVDFSSGNQLYKNDDKSLDQLDTFITADAWYRPKSILKDGKTWTASTEADKRPLLMVWWPDKSTQVNYLNYMQNQGLGAGSFSTNSSQESLDQAAKAVQTKIEERIAREGNTNWLRTSIDQFIKTQPGWNSSTENSSYDHLQGGQLLFNNSKGDTGNRTSHANSDYRLLNRTPTNQTGTRKYFKDNSIGGLEFLLANDIDNSNPAVQAEQLNWLHFMMNIGSIMANDPTANFDGLRVDALDNVDADLLQIASDYFKAAYGVDKSEANAIKHLSYLEAWSANDPYYNKDTKGAQLPIDNALRNALTNLLMRDKNTRMQLGDMTAFINSSLNPRGANDKNGERMANYIFTRAHDTEAQTIIQRIIRDRINPNLFGYNFTRDEIKKAFEIYNEDIDKAHKTYASYNLPSVYALMLTNKDSVTRVYYGDLYREDGHYMAKKTPYFDAIDTLLRARIKYVAGGQDMEVKKVGNDGLLTSVRYGKGANNRTDLGTSETRTQGMGVIMTNNYDFRLGSNETVTMNMGRAHRNQLYRPLLLTTKDGIATYLNDSDVPKKLLKRTDWNGNLTFNANDVFGVENVQVSGYLGVWVPYGAKANQDARTQPSNRANSDGQVYKSSAALDSQVMYEAFSNFQAFADDQPELYMNRVLAKNTDLLKAWGITSVGLPPQYVSSKDGTFLDSTIDNGYAFDDRYDMALSQNNKYGSLEDLLNVLRALHKDGIQAIADWVPDQIYNLPGKEVVNATRVNGYGNHQVGYQIIDQAYVANTRTDGTDYQGKYGGAFLDELKAKYPSIFNRVQISNGKQLPTNEKITKWSAKYFNGTNILGRGINYVLRDDKTNQYFNTSANSQLLPTPLRDTGAIT
modifications: T1 C-terminal truncation of GTF0974
B5: GTF4336T1: T1 C-terminal truncation of GTF4336, SEQ ID NO: 142, strain SG1307 (protein)
chain: B4 chain with L594F, K602N, Y638V, I707V, N797Y, V800Q, I805V
modifications: T1 C-terminal truncation of GTF4336

The assay is described as follows: GTF activity of strains (PAHBAH assay). It counts as biochemical. The settings on record: Experiment Number 1; enzyme expressed in B. subtilis host. The method, boiled down: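 Glucosyltransferase (GTF) activity of the bacterial strains was measured with the PAHBAH assay. The enzymes tested were truncated GTF variants produced in a Bacillus subtilis expression host. Measurements were split across three separate experiments, and each activity value is reported together with the experiment it came from because results varied slightly between experiments.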
B1: the “GTF activity of strains: Acitivity” value is 33.7 U/mL.

Consider B2, for which the “GTF activity of strains: Acitivity” value is reported as 7.2 U/mL.

Turning to B3, the “GTF activity of strains: Acitivity” value is 11.5 U/mL.

In the case of B4, the “GTF activity of strains: Acitivity” value is reported as 18.4 U/mL.

On to B5, for which the “GTF activity of strains: Acitivity” value was determined as 9.4 U/mL.
